The source of these data is the supplement of paper PMC9170038.

For the series, the system named is K4 kissing-loop RNA reporter. The series is described as follows: apparent KD of K4 kissing-loop reporter; higher = weaker reporter binding. As to conditions: Eterna round: R107. As for the experimental part:
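RNA-MaP round R107: designed RNA switches with theophylline, tryptophan, arginine or FMN aptamers are transcribed on-chip within common flanks. They are titrated with a labelled K4 kissing-loop RNA reporter in RNA-MaP buffer (100 mM Tris pH 7.5, 80 mM KCl, 4 mM MgCl2), without ligand or with the indicated ligand. Median apparent KD per design.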

Where [1] appears, read: input ligand: theophylline 20 uM.
The mark [2] stands for this setting: input ligand: tryptophan 2.4 mM.
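Also: bound reporter read as fluorescence of individual clusters on recovered sequencing chips by microscopy, with normalized cluster intensities fitted with a binding model.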

Turning to “UUAACCAACAGCGAUACCAGCGUGGAGUGAUGUUCCGAGGAUCGGAGUGAUGUUCCGAAGCGCCCUUGGCAGCGCAGAAGCGCCA [Exclusion Theophylline B GF9]”, the “apparent KD of K4 kissing-loop reporter” value runs as follows: (input ligand: FMN 200 uM) 183 nM; (input ligand: arginine 13.2 mM) 115 nM; (input ligand: none) 130 nM; under setting [1], 139 nM; under setting [2], 134 nM.
Consider “GGAGCUACCUGGGAUACCAGUCGGAGUCUCAGAGCUCGGAGUGAUGUUCUGGGAUGUUUCGGCCCUUGGCAGCUCUGGGACUCCU [#2 Exclusion - Theophylline B Attempt #18 (HarryS)]”, for which the “apparent KD of K4 kissing-loop reporter” value is, setting by setting: (input ligand: FMN 200 uM) 872 nM; (input ligand: arginine 13.2 mM) 749 nM; (input ligand: none) 864 nM; under setting [1], 763 nM; under setting [2], 881 nM.
Turning to “GGGAGUAGUGCGGCCGCCACUGAGAAAGAAGAAGAUUGUAGUGAUGUUAUGGAGGAAAGGAAGAACAGGACCGGGCAUUAGAUUU [SSTRyptB.I]”, the “apparent KD of K4 kissing-loop reporter” value (input ligand: FMN 200 uM) is 1080 nM; the “apparent KD of K4 kissing-loop reporter” value (input ligand: arginine 13.2 mM) stood at 735 nM; the “apparent KD of K4 kissing-loop reporter” value (input ligand: none) turned out to be 231 nM; the “apparent KD of K4 kissing-loop reporter” value under setting [1] was determined as 651 nM; the “apparent KD of K4 kissing-loop reporter” value under setting [2] amounted to 684 nM.
In the case of “UAUCAGAUUACUGAUACCAGUCUAAAGACAGUGAUGUUGUCUGAUCGACCACGAUCAAAGGACCCUUGGCAGCAGUAUACUAUUC [Theo B SS t5]”, the “apparent KD of K4 kissing-loop reporter” value by setting is: (input ligand: FMN 200 uM) 163 nM; (input ligand: arginine 13.2 mM) 157 nM; (input ligand: none) 157 nM; under setting [1], 164 nM; under setting [2], 158 nM.
Turning to “CUUGAUCGAGGAAGGAGCGGGCCGUCAUUGAGCGCAGUGAUGUUGCGGUCGACUAGUCGAGCCCAGGUAGGUCGCCUGGAGUAAG [Xeveis]”, the “apparent KD of K4 kissing-loop reporter” value (input ligand: FMN 200 uM) was determined as 202 nM; the “apparent KD of K4 kissing-loop reporter” value (input ligand: arginine 13.2 mM) came out at 159 nM; the “apparent KD of K4 kissing-loop reporter” value (input ligand: none) is 173 nM; the “apparent KD of K4 kissing-loop reporter” value under setting [1] came out at 160 nM; the “apparent KD of K4 kissing-loop reporter” value under setting [2] amounted to 192 nM.
Turning to “CUUUGAACAUGAGUGAUGUUCAUGUCCGAAGGAGCGUGCGAAAGCACAGGUAGGUCGCGGACGUGAGUGAUGUUCAUGUGAGCGA [KL-XArg-A11 #analogue]”, the “apparent KD of K4 kissing-loop reporter” value (input ligand: FMN 200 uM) was determined as 196 nM; the “apparent KD of K4 kissing-loop reporter” value (input ligand: arginine 13.2 mM) is 134 nM; the “apparent KD of K4 kissing-loop reporter” value (input ligand: none) was determined as 161 nM; the “apparent KD of K4 kissing-loop reporter” value under setting [1] amounted to 167 nM; the “apparent KD of K4 kissing-loop reporter” value under setting [2] was found to be 154 nM.
In the same order, the values of “CGACUAUUUCGAUAGUCGAUAGACACGGAAGGAGCGGGAUUCGUCCCAGGUAGGUCGCCGUGAAGUUGAGUGAUGUUCAACGUGU [Arg A SS t13]” are 160 nM, 155 nM, 155 nM, 170 nM and 147 nM.
In the same order, the values of “ACAUGAGUGAUGUUCAUGUGGAGCAGGGUACGAGGACCGGUACGGCCGCCACUCGAGAGUUAUGACGAGUUAAUGGCAACGAUGU [KL-Tryp-A8 #analogue]” are 122 nM, 90.2 nM, 98.8 nM, 96.3 nM and 103 nM.
For “ACCUGUGACUGAAGGAGCGUCUACUCCAGAGGAUGGAGUGAUGUUCCACUUUAAUGGAGUGGACAGGUAGGUCGCAGUCAUAGGA [Arg B SS t6]” the same measures were 126 nM, 94.5 nM, 108 nM, 88.7 nM and 115 nM.
“UAUUUAAAUAAAAUAAAAUAAAUUGCUGAUACCAGAGUCAAUUGACUCCCUUGGCAGCGGAUCGAGUGAUGUUCGUAAAAUUUAU [AK2.1 SS Theophylline A]”: the “apparent KD of K4 kissing-loop reporter” value reads like this: (input ligand: FMN 200 uM) 27.4 nM; (input ligand: arginine 13.2 mM) 57.7 nM; (input ligand: none) 30.8 nM; under setting [1], 58.5 nM; under setting [2], 31.9 nM.
Turning to “CCUUGGGCACGCCCACUAGGAAGCUAGUCUAAGGAUAUCGACUGGACGAGAAGGUAGACGGACCCGAGUGAUGUUCGGACAUAGG [theeternabot_sameState_KL_FMN_A_1]”, the “apparent KD of K4 kissing-loop reporter” value runs as follows: (input ligand: FMN 200 uM) 469 nM; (input ligand: arginine 13.2 mM) 260 nM; (input ligand: none) 215 nM; under setting [1], 179 nM; under setting [2], 200 nM.
For “AUCAUAUCUAGUCAGCCCAGUGAUGUUGGGCGAGGACCGGUACGGCCGCCACUCGCUUCGUUGCGGUGGCUGGCGUUACGACAAA [Inveusma]” the same measures were 130 nM, 142 nM, 150 nM, 142 nM and 137 nM.
As to “AUAUUUAUUUAGUCACUUUUCAUAUUAUGUCAGGAUAUCGUAUUUUCGAGAAGGGACUCAUGCUAGUGAUGUUAGCUAUUUCUCA [JR_Nu3_ExcFMNA_Sub022]”, the “apparent KD of K4 kissing-loop reporter” value by setting is: (input ligand: FMN 200 uM) 104 nM; (input ligand: arginine 13.2 mM) 170 nM; (input ligand: none) 141 nM; under setting [1], 162 nM; under setting [2], 111 nM.
For “UCGGACCCUGGAGGAUAUGAGUCGAGUGAUGUUCGGCGGUCCAUGCCGGUGCGGCGUUAUGCCCUUUUAGAAGGCCAGGGUCCGA [#2 Exclusion - FMN B Attempt #11 (HarryS)]” the same measures were 277 nM, 159 nM, 196 nM, 207 nM and 212 nM.
With “GUAUCGCUAGGAGGAUAUUUCGUUUUUCAUAGCAAUGGCUAUGCGGAGUGAUGUUCCGAUUUACCGAAAGAAGGCCUAGUGAUAC [FMN B 25]”, the “apparent KD of K4 kissing-loop reporter” value runs as follows: (input ligand: FMN 200 uM) 95.2 nM; (input ligand: arginine 13.2 mM) 87.8 nM; (input ligand: none) 99.2 nM; under setting [1], 103 nM; under setting [2], 98.8 nM.
For “UGACAUUGCUCAGAUACCAGACAUGAGCAUCAGCCAUGUGCCAAAUACGUACAAAUAAAUGUCCCUUGGCAGCUGAGCAAUGUCU [TheoBX 12]” the same measures were 66.7 nM, 30.7 nM, 37.5 nM, 80 nM and 44.4 nM.
